According to article PMC5493754, “Myosin 7 and its adaptors link cadherins to actin” (Nature Communications, 2017):

Tests used:
Myo7a MF1.SH3 = biological target: T1, Myo7a MF1.SH3 (Mus musculus, UniProt P97479)
T1 chain: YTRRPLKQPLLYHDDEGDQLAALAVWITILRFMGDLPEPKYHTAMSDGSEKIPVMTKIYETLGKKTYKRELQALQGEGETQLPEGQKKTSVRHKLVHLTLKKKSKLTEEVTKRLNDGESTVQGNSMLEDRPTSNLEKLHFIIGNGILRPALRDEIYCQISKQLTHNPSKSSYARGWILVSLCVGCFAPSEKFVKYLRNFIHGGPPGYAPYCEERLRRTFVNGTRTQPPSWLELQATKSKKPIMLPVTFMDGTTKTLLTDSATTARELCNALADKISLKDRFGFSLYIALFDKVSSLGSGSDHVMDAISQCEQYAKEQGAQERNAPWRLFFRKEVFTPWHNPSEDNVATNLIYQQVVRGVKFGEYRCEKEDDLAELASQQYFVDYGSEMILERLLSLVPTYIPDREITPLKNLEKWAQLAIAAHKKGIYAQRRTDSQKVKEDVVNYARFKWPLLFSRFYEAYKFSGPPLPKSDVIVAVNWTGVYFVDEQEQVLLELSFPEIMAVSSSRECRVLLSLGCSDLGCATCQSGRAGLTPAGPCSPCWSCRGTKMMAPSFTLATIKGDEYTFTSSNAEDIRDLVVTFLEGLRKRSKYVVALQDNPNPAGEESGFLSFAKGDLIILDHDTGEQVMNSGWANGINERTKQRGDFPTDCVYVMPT

Myosin 7b MF1.SH3 = biological target: T2, Myosin 7b MF1.SH3 (human, UniProt Q6PIF6 958-1586); assay: MST; YFP-fused partner held together with a third protein (saturating concentrations; competition experiments), non-fluorescent protein titrated; settings: both partners purified
T2 construct: also called M7b MF1.SH3; Myo7b MF1.SH3; source: E. coli (BL21-AI, BL21 (DE3) Rosetta or BL21-Gold (DE3)), purified (Histrap, CaptoQ, gel filtration)
T2 sequence: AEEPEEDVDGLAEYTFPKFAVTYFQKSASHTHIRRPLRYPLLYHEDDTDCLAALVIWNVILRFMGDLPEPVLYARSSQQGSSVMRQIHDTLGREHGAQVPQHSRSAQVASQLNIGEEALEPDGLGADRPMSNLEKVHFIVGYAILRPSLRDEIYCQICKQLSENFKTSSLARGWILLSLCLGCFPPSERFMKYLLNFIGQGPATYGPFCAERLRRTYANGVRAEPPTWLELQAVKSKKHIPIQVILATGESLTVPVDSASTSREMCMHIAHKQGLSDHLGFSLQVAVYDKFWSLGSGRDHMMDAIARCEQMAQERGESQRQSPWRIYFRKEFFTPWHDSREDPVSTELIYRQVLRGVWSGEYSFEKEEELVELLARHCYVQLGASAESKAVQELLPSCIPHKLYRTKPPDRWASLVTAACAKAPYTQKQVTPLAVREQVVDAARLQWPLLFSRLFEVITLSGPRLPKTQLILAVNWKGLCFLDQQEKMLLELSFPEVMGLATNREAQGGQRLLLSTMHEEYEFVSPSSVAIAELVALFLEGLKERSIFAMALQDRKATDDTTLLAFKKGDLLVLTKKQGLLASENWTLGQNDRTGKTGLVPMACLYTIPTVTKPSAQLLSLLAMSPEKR

Myosin 7a MF1.SH3 [1] = biological target: T3, Myosin 7a MF1.SH3 (human, UniProt Q13402-1 991-1692, residues 1523-1560 were deleted from MF1); assay: as above; settings: both partners purified
T3 construct: Myosin 7a, human, N-terminal MyTH4-FERM domain and SH3, residues 991-1692 of UniProt Q13402-1; residues 1523-1560 deleted; Thrombin site of the vector replaced by an SSG linker; also called M7a MF1.SH3; Myo7a MF1.SH3; source: E. coli (BL21-AI, BL21 (DE3) Rosetta or BL21-Gold (DE3)), purified (Histrap, CaptoQ, gel filtration)
T3 sequence (looked up): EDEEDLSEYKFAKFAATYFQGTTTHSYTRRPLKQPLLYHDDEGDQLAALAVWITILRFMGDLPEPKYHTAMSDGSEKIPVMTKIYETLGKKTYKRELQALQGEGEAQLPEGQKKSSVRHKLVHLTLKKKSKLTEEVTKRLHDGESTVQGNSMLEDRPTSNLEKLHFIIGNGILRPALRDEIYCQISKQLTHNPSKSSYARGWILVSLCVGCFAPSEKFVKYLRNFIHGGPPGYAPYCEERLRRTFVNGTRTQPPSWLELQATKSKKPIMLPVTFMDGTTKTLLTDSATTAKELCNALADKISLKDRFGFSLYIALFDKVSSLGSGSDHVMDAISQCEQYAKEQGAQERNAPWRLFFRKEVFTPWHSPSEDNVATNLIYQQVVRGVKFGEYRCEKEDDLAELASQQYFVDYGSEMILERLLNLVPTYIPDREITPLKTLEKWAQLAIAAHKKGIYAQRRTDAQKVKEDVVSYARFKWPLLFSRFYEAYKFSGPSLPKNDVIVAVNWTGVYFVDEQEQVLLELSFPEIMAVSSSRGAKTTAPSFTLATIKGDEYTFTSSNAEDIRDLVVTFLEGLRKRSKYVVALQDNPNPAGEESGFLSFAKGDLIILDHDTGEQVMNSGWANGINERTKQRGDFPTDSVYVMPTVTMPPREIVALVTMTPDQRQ

YFP-Myosin 7b MF1.SH3 = biological target: T4, YFP-Myosin 7b MF1.SH3 (human, UniProt Q6PIF6 958-1586); assay: MST; YFP-fused partner constant at 100 nM, non-fluorescent protein titrated (16 two-fold dilutions); 20 mM Hepes pH 7.0, 100 mM NaCl, 1 mM EGTA, 0.5 mM TCEP, 0.05% Tween 20; Monolith NT.115; settings: both partners purified
T4 construct: Myosin 7b, human, MF1.SH3, residues 958-1586 of UniProt Q6PIF6; pET14-YFP vector; also called ^YFPM7b MF1.SH3; source: E. coli (BL21-AI, BL21 (DE3) Rosetta or BL21-Gold (DE3)), purified (Histrap, CaptoQ, gel filtration)
T4 sequence: T2 sequence

Myosin 7a MF1.SH3 [2] = biological target: T3, Myosin 7a MF1.SH3; assay: SEC-MALS; Superdex 10/300 Increase; 20 mM Tris pH 7.0, 100 mM NaCl, 1 mM EGTA, 0.5 mM TCEP; samples at about 20 mg/ml; settings: both partners purified

B1: ANKS4B CEN-PBM (protein)
chain: VEEDDDVQHESILNRPGLGSIVFSRNRVLDFEDISDSKRELGFKMPSELFQRQGAAGTVEEEEEEEEEEEEEKREANGTAGDLPWDEEEVEWEEDAVDATPLEVFLQSQHLEEFLPIFMREQIDLEALLLCSDEDLQNIHMQLGPRKKVLSAIDKRKQVLQQPGQLVDTSL
With B1 the Kd (Myo7a MF1.SH3) was ~5 µM.

B2: ANKS4B_(CEN-PBM) with YFP-harmonin NPDZ1.PDZ2 (complex)
chain 1: SVHHESILNRPGLGSIVFRRNRISSPEDISDSKREFGFKLPSELLQRQGASEADEGAADEEGEENGLKDDLPWDDDEVEWEEDVVDATPLEVFLLSQHLEEFLPIFKREQIDLEALLLCSDEDLQSIQMQLGPRKKVLNAINRRKQVLQQPGQLVDTSL
chain 2: MDRKVAREFRHKVDFLIENDAEKDYLYDVLRMYHQTMDVAVLVGDLKLVINEPSRLPLFDAIRPLIPLKHQVEYDQLTPRRSRKLKEVRLDRLHPEGLGLSVRGGLEFGCGLFISHLIKGGQADSVGLQVGDEIVRINGYSISSCTHEEVINLIRTKKTVSIKVRHIGLIPVKSSPDEPLTWQYVDQFVSESGGVRGSLGSPGNRENKEKKVFISLVGSRGLGCSISSGPIQKPGIFISHVKPGSLSAEVGLEIGDQIVEVNGVDFSNLDHKEAVNVLKSSRSLTISIVAAAGRELFMTDR
notes: ANKS4B, human, residues 259-417 of UniProt Q8N8V4; as m43; Harmonin-a1 (USH1C), human, residues 1-301 of UniProt Q9Y6N9-1; as m31; also called ANKS4b+^YFPNPDZ1.PDZ2; ^YFPNPDZ1.PDZ2+ANKS4B_(CEN-PBM); source: purified E. coli proteins mixed
Work on B2 yielded a Kd (Myosin 7b MF1.SH3) of 4 µM.

B3: YFP-SANS_(CEN-PBM) saturated with harmonin NPDZ1.PDZ2 (complex)
chain 1: DSGHDSLFTRPGLGTMVFRRNYLSSGLHGLGREDGGLDGVGAPRGRLQSSPSLDDDSLGSANSLQDRSCGEELPWDELDLGLDEDLEPETSPLETFLASLHMEDFAALLRQEKIDLEALMLCSDLDLRSISVPLGPRKKILGAVRRRRQAMERPPALEDTEL
chain 2: B2 chain 2
notes: SANS (USH1G), residues 300-461 of UniProt Q495M9; as m40; Harmonin-a1 (USH1C), human, residues 1-301 of UniProt Q9Y6N9-1; as m30; also called ^YFPSANS_(CEN-PBM)+NPDZ1.PDZ2; source: purified E. coli proteins mixed (saturating NPDZ1.PDZ2); not shown: YFP, N-terminal, kept
B3 gave a Kd (Myosin 7a MF1.SH3 [1]) of 0.386 µM.

B4: ANKS4B_(CEN-PBM) (domain or fragment)
chain: B2 chain 1
notes: ANKS4B, human, residues 259-417 of UniProt Q8N8V4; source: E. coli (BL21-AI, BL21 (DE3) Rosetta or BL21-Gold (DE3)), purified (Histrap, CaptoQ, gel filtration)
Work on B4 yielded a Kd (YFP-Myosin 7b MF1.SH3) of 2.9 ± 0.03 µM.

B5: SANS_(CEN-PBM) (domain or fragment, UniProt Q495M9 300-461, looked up)
chain: B3 chain 1
notes: source: E. coli (BL21-AI, BL21 (DE3) Rosetta or BL21-Gold (DE3)), purified (Histrap, CaptoQ, gel filtration)
B5 was tested, and the “stoichiometry N” value (Myosin 7a MF1.SH3 [2]) was 1.
